Measurements from publication PMC12288907 (JCI Insight, 2025).
Numbering of substitutions follows the chain as printed.

B1: recombinant H7-235 IgG1 (rH7-235 IgG1) (antibody, V domains shown)
VH: QVQLVESGGGVVQPGESLRLSCAASGFAFRTYGMHWVRQAPGKGLEWVGVIWYDGSNKYYGDSVKGRFTISRDNSQNTLYLQMNSLRAEDTAVYYCARNGERWRVEDYYYGMDVWGQGTLVTVSS
VL: EIVMTQSPLSLPVTPGEPASISCRSSQSLLHSNAHNYLDWYLQKPGQSPQLLIYLGSNRASGVPDRFSGSGSGTDFTLKISRVEAEDVGIYYCMQALQTPITFGQGTRLEIK
notes: IgG1; also called rH7-235 mAb; mAb H7-235; copies: 2 + 2
B2: rH7-235rev IgG1 (germline revertant form of rH7-235 IgG) (antibody, V domains shown)
VH: B1 VH with E16R, A28T, R30S, T31S, G49A, G61A, Q76K
VL: not shown
B3: rH7-235 IgG1 (recombinant human monoclonal antibody H7-235) (antibody, V domains shown)
VH: B1 VH
VL: B1 VL
notes: also called mAb H7-235; source: Expi293F, transient transfection, purified (MabSelect Sure)

Columns and labels:
Test in all cases: ELISA
Details in all cases: both partners purified
[1] = molecular target: recombinant soluble trimeric H7 HA of A/Netherlands/219/2003 H7N7 (NL03 H7) (Influenza A virus …, UniProt Q6VMK1, strain)
[2] = molecular target: recombinant soluble trimeric H15 HA of A/shearwater/Western Australia/2576/1979 H15N9 (wtWA79 H15) (Influenza A virus A/wedge-tailed …, UniProt Q20ND8, strain)
[3] = molecular target: recombinant soluble trimeric H7 HA of A/Netherlands/219/2003 H7N7 (Influenza A virus …, UniProt Q6VMK1, strain)
[4] = molecular target: recombinant soluble trimeric H15 HA of A/shearwater/Western Australia/2576/1979 H15N9 (Influenza A virus A/wedge-tailed …, UniProt Q20ND8, strain)

Row | Binder | binding result [1] | binding result [2] | binding result [3] | binding result [4]
1 | B1 | binds | no binding | – | –
2 | B2 | – | – | no binding (tested: >10,000 ng/mL) | no binding (tested: >10,000 ng/mL)
3 | B3 | – | – | – | no binding (tested: >10,000 ng/mL)
